Experimental data published in patent US20260242732A1.
Like-named read-outs stand apart in the source and are kept apart here. One block for each binder: values may come before it.

What was measured:
[1] = molecular target: recombinant human P-selectin (human) (UniProt P16109)
[2] = molecular target: recombinant human P-selectin (human) (UniProt P16109); remark: listed apart in the source

Sequence of UniProt P16109 (P16109 42-771 limits assumed): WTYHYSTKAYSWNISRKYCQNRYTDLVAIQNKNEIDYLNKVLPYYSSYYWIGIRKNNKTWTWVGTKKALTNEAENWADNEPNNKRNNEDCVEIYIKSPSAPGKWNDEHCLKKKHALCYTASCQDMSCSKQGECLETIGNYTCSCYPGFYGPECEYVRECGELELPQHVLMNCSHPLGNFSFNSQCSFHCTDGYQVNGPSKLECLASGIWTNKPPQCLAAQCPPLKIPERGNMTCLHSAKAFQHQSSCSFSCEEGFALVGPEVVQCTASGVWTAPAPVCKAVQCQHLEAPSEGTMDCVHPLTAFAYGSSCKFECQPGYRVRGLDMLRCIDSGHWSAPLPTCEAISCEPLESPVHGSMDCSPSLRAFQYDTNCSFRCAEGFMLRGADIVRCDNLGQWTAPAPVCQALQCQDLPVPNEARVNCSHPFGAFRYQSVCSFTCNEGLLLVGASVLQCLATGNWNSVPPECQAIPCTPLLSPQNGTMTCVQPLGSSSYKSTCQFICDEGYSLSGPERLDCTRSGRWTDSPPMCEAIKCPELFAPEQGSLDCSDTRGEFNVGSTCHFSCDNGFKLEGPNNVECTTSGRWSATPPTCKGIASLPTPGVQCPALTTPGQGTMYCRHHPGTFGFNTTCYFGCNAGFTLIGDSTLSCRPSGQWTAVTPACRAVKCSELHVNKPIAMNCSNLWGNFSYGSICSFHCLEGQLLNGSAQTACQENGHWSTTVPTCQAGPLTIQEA

Freq. of mCherry+ (BFP+ cells) at 1 ng/uL rhp-selectin [1]: 2.1%
Freq. of mCherry+ (BFP+ cells) at 10 ng/uL rhp-selectin [1]: 13.2%
Freq. of mCherry+ (BFP+ cells) at 25 ng/uL rhp-selectin [1]: 15.6%
Freq. of mCherry+ (BFP+ cells) at 50 ng/uL rhp-selectin [1]: 15.8%
Freq. of mCherry+ (BFP+ cells) at 100 ng/uL rhp-selectin [1]: 12.1%
B1: LH (Crizanlizumab) scFv synNotch receptor (receptor, part only; not given: Myc tag, Notch core, Gal4, part only)
chain, part: DIQMTQSPSSLSASVGDRVTITCKASQSVDYDGHSYMNWYQQKPGKAPKLLIYAASNLESGVPSRFSGSGSGTDFTLTISSLQPEDFATYYCQQSDENPLTFGGGTKVEIKRGGGGSGGGGSGGGGSQVQLVQSGAEVKKPGASVKVSCKVSGYTFTSYDINWVRQAPGKGLEWMGWIYPGDGSIKYNEKFKGRVTMTVDKSTDTAYMELSSLRSEDTAVYYCARRGEYGNYEGAMDYWGQGTLVTVSS

Freq. of mCherry+ (BFP+ cells) at 1 ng/uL rhp-selectin [2]: 16.2%
Freq. of mCherry+ (BFP+ cells) at 10 ng/uL rhp-selectin [2]: 33%
Freq. of mCherry+ (BFP+ cells) at 25 ng/uL rhp-selectin [2]: 32.2%
Freq. of mCherry+ (BFP+ cells) at 50 ng/uL rhp-selectin [2]: 25.4%
Freq. of mCherry+ (BFP+ cells) at 100 ng/uL rhp-selectin [2]: 18.4%
B2: HL (Crizanlizumab) scFv synNotch receptor (receptor, part only; not given: Myc tag, Notch core, Gal4, part only)
chain, part: QVQLVQSGAEVKKPGASVKVSCKVSGYTFTSYDINWVRQAPGKGLEWMGWIYPGDGSIKYNEKFKGRVTMTVDKSTDTAYMELSSLRSEDTAVYYCARRGEYGNYEGAMDYWGQGTLVTVSSGGGGSGGGGSGGGGSDIQMTQSPSSLSASVGDRVTITCKASQSVDYDGHSYMNWYQQKPGKAPKLLIYAASNLESGVPSRFSGSGSGTDFTLTISSLQPEDFATYYCQQSDENPLTFGGGTKVEIKR
